Assay: Light scattering of tirzepatide samples (apparent weight-average molecular weight, self-association)
Type: physicochemical
Conditions: Mounjaro™ matrix (5 mM phosphate buffer, 140 mM NaCl, pH=7.0), 5 mg/mL to 30 mg/mL
Experimental: Tirzepatide formulations were prepared for light scattering measurements, with compositions detailed in Tables 1.a and 1.b. Light scattering data were collected using an ALV-CGS3 goniometer-based light scattering instrument (ALV-GmbH, Langen, Germany), which is a self-contained system with 22 mW 633 nm HeNe laser. Samples were filtered into disposable glass tubes using appropriate filters. Corresponding drug product placebos were used as scattering blanks. A single 15- or 30-second-long acquisition at 90-degree scattering angle was collected per sample, using the dynamic light scattering (DLS) mode. The resulting DLS auto-correlation functions were analyzed using intensity-weighted regularized size distributions, and shown to be monomodal before proceeding. The time-averaged scattering intensity values of the samples, placebos and toluene were used to calculate the excess Rayleigh ratios.
Apparent weight-average molecular weight (WAMW) values were calculated using formula (1):
[formula] • where K is an optical constant, c is the peptide mass concentration, and R is the excess Rayleigh ratio. A refractive index increment (dn/dc) of 0.185 mL/g was assumed.
To study the effect of preservatives, m-cresol, phenol or benzyl alcohol at selected concentrations were added to a standard Mounjaro™ composition. […]

With tirzepatide the self-association of tirzepatide was “monomer-trimer-hexamer equilibrium”.
